Results reported in PMC3778281.

Biological target: F8–TNF (murine)
Assay: SEC

stoichiometry N: 3
Substance: F8–TNF
